# Laboratory results taken from the nanobody polyreactivity screen of Harvey et al. (2022).
# Test: yeast display, Sf9 membrane polyspecificity reagent, FACS + sequencing; frameworks hold sequencing errors
# Method in brief: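 Synthetic nanobody libraries on Saccharomyces cerevisiae BJ5465 were galactose-induced for 36–48 hours, stained 1 hour at 4 °C with 10% biotinylated, detergent-solubilized Sf9 membrane reagent and enriched on streptavidin microbeads. FACS then separated cells into low and high (top ~1%) gates by anti-HA (expression) and streptavidin (reagent binding) fluorescence. Genes were colony-PCR amplified, MiSeq 2 × 250 sequenced and CDR-length filtered. A clone's polyreactivity label is that of its gate of origin.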
row,Sequence,polyreactivity (PSR sort gate)
1,QVQLVESGGGLVQAGGSLRISCAASGSIFLYNDMGWYRQAPGKERELVAAITSTGNTNYADSVKGRFTISRDNAKNTVYLQMNSLNRKRPRSITALNVSCTSVVVGYDYWGQGTQVTVSS,low polyreactivity
2,QVQLVESGGGLVQAGGSLRISCAASGSIFLYYAMGWYRQPPGKEREFVAAISYSGGRTYYADSVKGRFTISRDNAKNTVYLQMNSLKPEDTAVYYCNALYRLGVSGLTQSRYGYWGQGTQVTVSS,high polyreactivity
3,QVQLVESGGGLVQAGGSLRISCAASGSIFRGNAMGWYRQAPGKERELVAAISKSGGSTYYADSVKGRITISRDNAKNTVYLQMNSLKPEDTAVYYCAARTTYLYGMYYWGQGTQVTVSS,low polyreactivity
4,QVQLVESGGGLVQAGGSLRISCAASGSIFRQYAMGLYRQAPGKEWELVAAITYSGGNTYYADSVKGRFTISRDNAKNTVYLQMNSLKPEDTAVYYCAADYGSRSWEYNYWGQGTQVTVSS,low polyreactivity
5,QVQLVESGGGLVQAGGSLRISCAASGSIFRVYAMGWYRPAPGKERELVASITLSGGSTYYADSVKGRVTISRDNAKNTVYLQMNSLKPDDTAVYSCAARKRYRNPNTSRGMDYWGQGTQVNVSS,high polyreactivity
6,QVQLVESGGGLVQAGGSLRISCAASGSIFRYYAMGWYRQAPGKEREFVDSITYRGGRTYYADSVKGRFTISRDNAKNTVYLQMNSLKPEDTAVYYCAARYRVRYYERDYWGQGTQVTVSS,high polyreactivity
7,QVQLVESGGGLVQAGGSLRISCAASGSIFTAYAMGWYRQAPGKERELVAAITQSAGSTYADSVKGRFTISRDNAKNTVYLPMHSLNQEDTAVSYCAARYRYPYYARYGYWGQGTQVTVSS,high polyreactivity
8,QVQLVESGGGLVQAGGSLRISCAASGSIFWDNVMGWYRQAPGKERELVADIDSWDGGSTYYADSVKGRFTISRDNAKNTVYLQMNSLKPEDTAVYYCNTDVLWWRGGDDYWGQGTQVTVSS,low polyreactivity
9,QVQLVESGGGLVQAGGSLRISCAASGSIFWRYVMGWYRPAPGKERELIAAISSGGGITYYADSVKGRFTISRDNAKNTVYLQMNSLKPEDTAVYYCAARTYRGQYYTGFGFGYWGQGSQVTVSS,high polyreactivity
10,QVQLVESGGGLVQAGGSLRISCAASGSLFYRYAMGWYRQAPGKEREMVAAINDSGGGTYYADSVKGRFTISRDKAKNTVYLQMNSLKPEDTAVYYCAAATHNKHTARDDYWGQGTQVNVSS,low polyreactivity
11,QVQLVESGGGLVQAGGSLRISCAASGSNSNANAMGWYRQAPGKQREFVADISRSRGRTYYADSVKGRFTISRDNAKYTVYLQMNSLKPEVTAVYYCAAGGFGAGNNYWGQGTQVTVSS,high polyreactivity
12,QVQLVESGGGLVQAGGSLRISCAASGSTFDGNAMGWYRQAPGKERELVAAISDGDSTTNADSVKGRFTISRDNAKNTVYLQMNSLKPEDTAVYYCAARSPGDQRLGRHYYGEFDYWGQGTQVTVSS,low polyreactivity
13,QVQLVESGGGLVQAGGSLRISCAASGSTFLYNNMGWYRQAPGKERELVAAITWSGGNTYYADSVKGRFTISRDNAKNTVYLQMNSLKPEDTAVYYCNAVWYPPKRKCFDYWGQGTQVTVSS,low polyreactivity
14,QVQLVESGGGLVQAGGSLRISCAASGSTFRRYPIGWYRQAPGKEREFVAVITSSGVITYYADSVKGRFTISRDNAKNTVYLQMNSLKPEDTAVYYCATDARSMDYWGQGTQVTVSS,low polyreactivity
15,QVQLVESGGGLVQAGGSLRISCAASGSTFVPNTMGWYRQAPGKERELVAAITYSGGSTYYADSVKGRFTISRDYAKNTVYLLMNSLKPEDTEVYYCAAEGTTWYYDMDYWGQGTQVTVSS,low polyreactivity
16,QVQLVESGGGLVQAGGSLRISCAASGSTFWYYAMGWYRQAPGKERELVAAINSDDSTNYADSVKGRFTISRDNAKNTVYLQMNSLKPEDTAVYYCNRGFVYSTTGLWRYYDFDYWGQGTQVTVSS,low polyreactivity
17,QVQLVESGGGLVQAGGSLRISCAASGSTFWYYAMGWYRQAPGKERELVAVINSGGITNYADSVKGRFTISRDNAKNTVYLQMNSLKPEDTAVYYCNKRLYWGYGEMDYWGQGTQVTVSS,low polyreactivity
18,QVQLVESGGGLVQAGGSLRISCAASGSTFYRNAMGWYRQAPGKERELVARISSRGGRTSYADSVKGRFTISRDNAKNNVYFQMNSLKPEDTAVYYCAADYYVNRIQRYDYWGQGTQVTVSS,high polyreactivity
19,QVQLVESGGGLVQAGGSLRISCAASGSTFYVNAMGWYRQAPGKERELVAAIDGGDTYYADSVKGRFTISRDNAKNTVYLQMNSLKPEDTAVYYCAAESLPEISVGLGYWGQGTQVTVSS,low polyreactivity
20,QVQLVESGGGLVQAGGSLRISCAASGTFGSNAMGWYRQAPGKERELVAAINSGGTTKYADSVKGRFTISRDNAKNTVYLQMNSLKPEDTAVYYCNAREGVFRYPVAHDYWGQGTQVTVSS,low polyreactivity
21,QVQLVESGGGLVQAGGSLRISCAPSGITFKDYAMGWYRQAPGKERELVAVISYSGGSTYYADTVKGRFTISRDNAKNTVYLQMNSLKPEDTAVYYCAARVGPEYDWGQGTQVTVSS,low polyreactivity
22,QVQLVESGGGLVQAGGSLRISCAPSGRTFGINAMGWYRQAPGKERELVAVISFGDGGTYYADSVKGRFTISRDNAKNTVYLQMNSLKPEDTAVYYCATDYQSTSVWGGHFVINPYDYWGQGTQVTVSS,low polyreactivity

row,Sequence,polyreactivity (PSR sort gate)
1,QVQLVESGGGLVQAGGSLRISCAPSGSTFYTNAMGWYRQAPGKEREFVAAISWSGSSTYADSVKGRFTISRDNAKNTVYLQMNSLKPEDTAVYYFAADWFKLRTDYYWGQGTQVTVSS,low polyreactivity
2,QVQLVESGGGLVQAGGSLRISCASSGFTIWGYTMVWYRQAPGKERELVAAITSTGSTYYADSVKGRFTISRDNAKNTVYLQMNSLKPEDTAVYYCAAESYYGYDYWGQGTQVTVSS,low polyreactivity
3,QVQLVESGGGLVQAGGSLRISCSASGSIFTGYAMGWYRPAPGKERELVAAISNSGTSTYYADSVKGRFTISRDNANNTVYLQMNSLKPEDTAVYYCNTVGHRWLSDDDYWGQGTQVTVSS,low polyreactivity
4,QVQLVESGGGLVQAGGSLRISCVASARTFYRYAMGWYRQAPGKERELVAVITRGGSTYYADSVKGRFTISRDNAKNPVYLQMNSLKPEDTAVYFCNADGRVQRKYDYWGQGTQVTVSS,high polyreactivity
5,QVQLVESGGGLVQAGGSLRISFAASGFFFARYAMGWYRQEPGKERELVAAISGSGARTYYADSVKGRFTNSRDNAKNTVYLQMNSLKPEDTAVYYCAVRGSWYSEHNYWGQGTQVTVSS,high polyreactivity
6,QVQLVESGGGLVQAGGSLRISSAASALIIYDNMGRYRQAPGKERELVAAISSSGGSTSYADSVKGRFTFSRDNANNTVYLQMNSLKPEDTAVYYSAADSYPAYLGFVGFDYWGQGTQVTVSS,low polyreactivity
7,QVQLVESGGGLVQAGGSLRISSAASGPTFVPNAMGSYRQAPGKERELVATITSGGNTYYADSVKGRFTISRDNAKNTVYLQMNSLKPEDTAVYYCNRDWIYWGPRRNSGEYWGQGTQVTVSS,low polyreactivity
8,QVQLVESGGGLVQAGGSLRLCCAACGRIFYAYAMGWYRQAPGKERELVAAISSSGGRTYYADSVKGRFTISRDNAKNTVYLQMNSLKPEDTAVYYSAAVHYYKFEWGQRTQVTVSS,high polyreactivity
9,QVQLVESGGGLVQAGGSLRLCCAASGSTFYFYTMGWYRQAPGKERELVAAIRDSGSSTDYADSVKGRFTISRDNAKNTVYLQMNSLKPEATAVYYCAAEYNFPEFPWGGEYDYWGQGTQVTVSS,low polyreactivity
10,QVQLVESGGGLVQAGGSLRLCCAAYGRTFRGNAMRLYTQAPGKERELVAVITSGDSTYYADSVKGRFTNSRDNAKNTVYLQMNSLKPEDTAVYYCAAYLWKSKRKLDYWGQGTQVTVTS,high polyreactivity
11,QVQLVESGGGLVQAGGSLRLGCAASGFTLWYYNIGWYRQAPGKERELVASISWSGGSTYYADSVKGRFTISRDNAKNTVYLQMNSLKPEDTALYYCNVQSYDRIYDYWGQGTQVTVSS,high polyreactivity
12,QVQLVESGGGLVQAGGSLRLICAASAFNFRYYVMGWYRQAPGKERELVAVISYSGGSTYYADSVKGRFTISRDNAKNTVYLQRNSMKPEDTAVYYCDARYYVATSSIYYYWGQGTQVTVSS,high polyreactivity
13,QVQLVESGGGLVQAGGSLRLICAASAFTIRRYAMGWYRQARGKERELVAAINWNGDTTYYADSVKGRFTISSDNAKNTVYLQMNSLKPEDTAVYYCATSDYYYDYWGQGTQVTVSS,high polyreactivity
14,QVQLVESGGGLVQAGGSLRLICAASGFIFASYAMGWYRQSPGKEREFVAAITRRGGTTYYADSVNGRFTISRDNAKNTVYLQMNSLKPEDTAVYYCATAHSRPGYVFDYWGQGTQVTVSS,high polyreactivity
15,QVQLVESGGGLVQAGGSLRLICAASGFIFAWYAMGWYRQAPGKERELVAAITSGGRTYYADSVKGRFTISRDNAKNTVYLQMNSMKPEDTAVYYCATDAVDSHRPYKYGPQSGSWGQGTQVTVSS,high polyreactivity
16,QVQLVESGGGLVQAGGSLRLICAASGFIFGAYTMGWYRQAPGKERELVADISRRGGTTYYADSVKGRFTISRDNAKNTVYLQMISLKPEDTAVYYCAKVANFWYITTLRGYYYWGQGTQVTVSS,high polyreactivity
17,QVQLVESGGGLVQAGGSLRLICAASGFIFRVYAMGWYRQAPGKERALVATITYDGGRTYYADSVKGRFTISRDNAKNTVYLQMNSLKPEDTAVFGYWGQGTQVTVSS,low polyreactivity
18,QVQLVESGGGLVQAGGSLRLICAASGFIFYGNAMGWYRQAPGKERELVAAISSSGGSTYYADSVKGRFTISRDNAKNTVYLQMNSLKPEDTAVYYCNKYYLVKGPYDWGQGTQVTVSS,high polyreactivity
19,QVQLVESGGGLVQAGGSLRLICAASGFIITGNAMGWYRQAPGKERELVAAITSGGNTYYADSVKGRFTISRDNAKNTVYLQMISMKPEDTAVYYCAKYGPHWRILMEYWGQGTQVTVSS,low polyreactivity
20,QVQLVESGGGLVQAGGSLRLICAASGFTFDENAMGWYRQAPGINYSGASTYYADSVKGRFTISRDNAKNTVYLQMISLKPEDTAVYYCAADYETGAVSILDDYWGQGTQVTVSS,low polyreactivity
21,QVQLVESGGGLVQAGGSLRLICAASGFTFGEYAMGWYRKAPGKERELVAGISWSGGGTYYADSVKGRFTISRDTAKNTVYLQMNCLKPEDTAVYYCAKAGYYFFQQWQVDYWGQGTQVTVSS,low polyreactivity
